Read-outs that look alike come from different tables or passages of the source.
Tests used:
[1] = Thiol-disulfide exchange equilibrium (GSH/GSSG redox buffer): intramolecular disulfide formation between two Cys of reduced peptide; Ceff=([pep_ox]/[pep_red])x([GSH]^2/[GSSG]), HPLC after acid quench; settings: the molecule shown is the open-chain precursor; 32-membered ring; water, ca. 0.15 M Tris, 1 mM EDTA, pH 8.10, 25 mM total glutathione; 0.375 mM; 20.0 °C; 1.5 h
[2] = cited from earlier work

Compound	ring closure, Ceff [1] [mM]	hairpin population ([2]; in water, NMR estimate)	further results
CC(C)C[C@H](NC(=O)[C@H](Cc1ccccc1)NC(=O)[C@H](CO)NC(=O)CNC(=O)[C@H](CCC(N)=O)NC(=O)[C@H](Cc1c[nH]c2ccccc12)NC(=O)[C@@H](NC(=O)[C@H](CS)NC(=O)[C@@H](N)CO)[C@@H](C)O)C(=O)N[C@H](C(=O)N[C@@H](CS)C(=O)N[C@@H](CCCCN)C(N)=O)[C@@H](C)O [H-SCTWQGSFLTCK-NH2]	120	–	–
CC(C)C[C@H](NC(=O)[C@H](Cc1ccccc1)NC(=O)[C@H](CO)NC(=O)CNC(=O)[C@H](CCC(N)=O)NC(=O)[C@H](CC(N)=O)NC(=O)CNC(=O)[C@H](CS)NC(=O)[C@@H](N)CO)C(=O)N[C@H](C(=O)N[C@@H](CS)C(=O)N[C@@H](CCCCN)C(N)=O)[C@@H](C)O [H-SCGNQGSFLTCK-NH2]	45	–	–
KKYTVSINGKKITVSI (turn peptide)	–	–	ΔG of hairpin formation ([2]; 298 K): 0.33 kJ/mol; hairpin population ([2]; in water, 303 K): 50%
RGITVNGKTYGR (turn peptide) [designed β-hairpin peptide, type I′ turn flanked by three-residue strands]	–	about 30%	–
MQIGVKNPDGTITLEV (turn peptide)	–	ca. 80%	–
IYSNPDGTWT (turn peptide) [variant of tendamistat-based model peptide]	–	30%	–
IYSNSDGTWT (turn peptide)	–	30%	–
YITNSDGTWT (turn peptide) [model peptide forming a register-shifted hairpin]	–	80%	–
CC(=O)N[C@@H](CS)C(=O)N[C@H](C(=O)N[C@@H](Cc1ccccc1)C(=O)N[C@@H](CCC(=O)O)C(=O)NCC(=O)N[C@@H](CC(N)=O)C(=O)N[C@@H](CCCCN)C(=O)N[C@@H](CC(C)C)C(=O)N[C@H](C(=O)N[C@@H](CS)C(N)=O)[C@@H](C)O)[C@@H](C)O [Ac-CTFEGNKLTC-NH2]	88	–	–
CC(=O)N[C@@H](CS)C(=O)N[C@H](C(=O)N[C@@H](CCCCN)C(=O)N[C@@H](CCC(=O)O)C(=O)NCC(=O)N[C@@H](CC(N)=O)C(=O)N[C@@H](CCCCN)C(=O)N[C@@H](CC(C)C)C(=O)N[C@H](C(=O)N[C@@H](CS)C(N)=O)[C@@H](C)O)[C@@H](C)O [Ac-CTKEGNKLTC-NH2]	52	–	–
GEWTYDDATKTFTVTE (turn peptide) [hairpin peptide derived from the B1 domain of protein G]	–	about 50%	hairpin population ([2]; 273 K, from denaturation study): 80%; ΔH of folding ([2]; assuming ΔCp=0): -48.5 kJ/mol; ΔS of folding ([2]; assuming ΔCp=0): −39 cal/mol K
CC(=O)N[C@@H](CS)C(=O)N[C@H](C(=O)N[C@@H](CC(N)=O)C(=O)N[C@@H](CCC(=O)O)C(=O)NCC(=O)N[C@@H](CC(N)=O)C(=O)N[C@@H](CCCCN)C(=O)N[C@@H](CC(C)C)C(=O)N[C@H](C(=O)N[C@@H](CS)C(N)=O)[C@@H](C)O)[C@@H](C)O [Ac-CTNEGNKLTC-NH2]	52	–	–
CC(C)C[C@H](NC(=O)[C@H](CCCCN)NC(=O)[C@H](CC(N)=O)NC(=O)CNC(=O)[C@H](CCC(=O)O)NC(=O)[C@H](Cc1c[nH]c2ccccc12)NC(=O)[C@@H](NC(=O)[C@H](CS)NC(=O)[C@@H](N)CO)[C@@H](C)O)C(=O)N[C@H](C(=O)N[C@@H](CS)C(=O)N[C@@H](CCCCN)C(N)=O)[C@@H](C)O [H-SCTWEGNKLTCK-NH2]	273	–	–
CC(C)C[C@H](NC(=O)[C@H](Cc1ccccc1)NC(=O)[C@H](CO)NC(=O)CNC(=O)[C@H](CCC(N)=O)NC(=O)[C@H](Cc1c[nH]c2ccccc12)NC(=O)CNC(=O)[C@H](CS)NC(=O)[C@@H](N)CO)C(=O)N[C@H](C(=O)N[C@@H](CS)C(=O)N[C@@H](CCCCN)C(N)=O)[C@@H](C)O [H-SCGWQGSFLTCK-NH2]	48	–	–

Reference: US7235626B1, “Structured peptide scaffold for displaying turn libraries on phage” (Genentech, Inc., priority 1999, dated 2007)
